# PMC4457860, “In Vitro Interaction of the Housekeeping SecA1 with the Accessory SecA2 Protein of Mycobacterium tuberculosis” (PLoS ONE, 2015)
# B1: Mycobacterium tuberculosis SecA2 (unlabeled) (natural protein)
# chain: MVPKTTRAQPGRLSSRFWRLLGASTEKNRSRSLADVTASAEYDKEAADLSDEKLRKAAGLLNLDDLAESADIPQFLAIAREAAERRTGLRPFDVQLLGALRMLAGDVIEMATGEGKTLAGAIAAAGYALAGRHVHVVTINDYLARRDAEWMGPLLDAMGLTVGWITADSTPDERRTAYDRDVTYASVNEIGFDVLRDQLVTDVNDLVSPNPDVALIDEADSVLVDEALVPLVLAGTTHRETPRLEIIRLVAELVGDKDADEYFATDSDNRNVHLTEHGARKVEKALGGIDLYSEEHVGTTLTEVNVALHAHVLLQRDVHYIVRDDAVHLINASRGRIAQLQRWPDGLQAAVEAKEGIETTETGEVLDTITVQALINRYATVCGMTGTALAAGEQLRQFYQLGVSPIPPNKPNIREDEADRVYITTAAKNDGIVEHITEVHQRGQPVLVGTRDVAESEELHERLVRRGVPAVVLNAKNDAEEARVIAEAGKYGAVTVSTQMAGRGTDIRLGGSDEADHDRVAELGGLHVVGTGRHHTERLDNQLRGRAGRQGDPGSSVFFSSWEDDVVAANLDHNKLPMATDENGRIVSPRTGSLLDHAQRVAEGRLLDVHANTWRYNQLIAQQRAIIVERRNTLLRTVTAREELAELAPKRYEELSDKVSEERLETICRQIMLYHLDRGWADHLAYLADIRESIHLRALGRQNPLDEFHRMAVDAFASLAADAIEAAQQTFETANVLDHEPGLDLSKLARPTSTWTYMVNDNPLSDDTLSALSLPGVFR
# notes: No tag; molecular mass 85 kDa on SDS-PAGE; also called PIP152
# Key:
# [1] = biological target: Mycobacterium tuberculosis SecA1 (unlabeled) (Mycobacterium tuberculosis strain H37Rv) (UniProt P9WGP5); assay: SEC; Superdex 200 10/300 GL, 0.5 ml/min, 20 mM HEPES-KOH pH 7.5, 2 mM MgCl2, 50 mM arginine, low salt (30 mM KCl); protein 2-5 mg/ml; mass estimated with protein standards
# [2] = biological target: Escherichia coli SecA labeled with Cy5 (E. coli) (UniProt P10408); assay: MST; Monolith NT.115; unlabeled protein (1 nM to 5 μM) titrated into 25 nM Cy5-labeled protein, mixed in 300 mM KCl, then diluted into low salt buffer (25 mM HEPES-KOH pH 7.5, 30 mM KCl, 2 mM MgCl2, 50 mM arginine); Hill fit, apparent Kd; dimer to monomers
# [3] = biological target: the molecule itself; assay: SEC; Superdex 200 10/300 GL, 0.5 ml/min, 20 mM HEPES-KOH pH 7.5, 2 mM MgCl2, 50 mM arginine, low salt (30 mM KCl); protein 2-5 mg/ml; mass estimated with protein standards
molecule,measurement,setting,value
Mycobacterium tuberculosis SecA1 (unlabeled) (from UniProt P9WGP5 1-949) (natural protein),stoichiometry N,[1],2
Escherichia coli SecA (unlabeled) (from UniProt P10408 1-901) (natural protein),Kd,[2],31 nM
B1,stoichiometry N,[3],2
